Our source for the Km of t-PA-mediated plasminogen conversion in the presence of S100A4 (EGTA) and Km of t-PA-mediated plasminogen conversion, basal reaction (EGTA) values is patent US20050277575.

In this series the target is T1, Glu-plasminogen (Calbiochem), P00747.
T1 chain: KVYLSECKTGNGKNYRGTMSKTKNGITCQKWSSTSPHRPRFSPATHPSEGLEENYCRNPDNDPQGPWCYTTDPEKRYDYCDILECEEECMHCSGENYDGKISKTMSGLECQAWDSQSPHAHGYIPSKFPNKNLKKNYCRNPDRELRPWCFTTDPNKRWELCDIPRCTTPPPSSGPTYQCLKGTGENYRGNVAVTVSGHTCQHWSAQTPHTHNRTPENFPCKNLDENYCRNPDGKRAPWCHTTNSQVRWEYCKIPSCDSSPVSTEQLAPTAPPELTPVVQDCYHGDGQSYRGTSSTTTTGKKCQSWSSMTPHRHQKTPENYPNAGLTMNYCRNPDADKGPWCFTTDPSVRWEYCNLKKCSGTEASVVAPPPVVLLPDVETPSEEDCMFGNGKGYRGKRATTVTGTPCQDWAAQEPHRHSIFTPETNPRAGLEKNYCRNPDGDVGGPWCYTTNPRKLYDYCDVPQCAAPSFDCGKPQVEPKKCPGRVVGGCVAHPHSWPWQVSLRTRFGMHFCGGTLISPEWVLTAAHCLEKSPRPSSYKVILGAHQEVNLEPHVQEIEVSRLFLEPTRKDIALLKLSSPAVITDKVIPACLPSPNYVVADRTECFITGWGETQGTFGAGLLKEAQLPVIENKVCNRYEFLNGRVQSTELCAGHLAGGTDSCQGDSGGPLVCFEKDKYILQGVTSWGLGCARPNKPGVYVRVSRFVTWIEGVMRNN

B1: tissue type plasminogen activator (t-PA, Calbiochem) (protein)
chain: SYQVICRDEKTQMIYQQHQSWLRPVLRSNRVEYCWCNSGRAQCHSVPVKSCSEPRCFNGGTCQQALYFSDFVCQCPEGFAGKCCEIDTRATCYEDQGISYRGTWSTAESGAECTNWNSSALAQKPYSGRRPDAIRLGLGNHNYCRNPDRDSKPWCYVFKAGKYSSEFCSTPACSEGNSDCYFGNGSAYRGTHSLTESGASCLPWNSMILIGKVYTAQNPSAQALGLGKHNYCRNPDGDAKPWCHVLKNRRLTWEYCDVPSCSTCGLRQYSQPQFRIKGGLFADIASHPWQAAIFAKHRRSPGERFLCGGILISSCWILSAAHCFQERFPPHHLTVILGRTYRVVPGEEEQKFEVEKYIVHKEFDDDTYDNDIALLQLKSDSSRCAQESSVVRTVCLPPADLQLPDWTECELSGYGKHEALSPFYSERLKEAHVRLYPSSRCTSQHLLNRTVTDNMLCAGDTRSGGPQANLHDACQGDSGGPLVCLNDGRMTLVGIISWGLGCGQKDVPGVYTKVTNYLDWIRDNMRP
On to B1, for which the Km of t-PA-mediated plasminogen conversion in the presence of S100A4 (EGTA) was found to be 0.059 µM and the Km of t-PA-mediated plasminogen conversion, basal reaction (EGTA) is 0.429 µM.
